The record followed here is US11207404B2, “Compositions and uses” (priority 2015, dated 2021).

The nature of data set [1]: Visual assessment of adverse effect on injection site in pigs. Format: in vivo. Particulars: extra dose of 150 μg of Compound A alone; 2 pigs. The protocol: A brief adverse effect visual assessment on injection site was performed on 2 random chosen pigs by testing an extra dose of 150 μg of Compound A alone.
Data set [2] is described as follows: Antigen fragment solubility/stability (Table 1). Format: physicochemical. The text has this:
Antigen (abbreviated as “Ag” herein) fragments employed in the present invention typically have certain properties useful in conjugation. In one aspect, the antigen fragments are proteins that are stable in solution and not prone to any substantial aggregation. In another aspect the antigen fragment contains a minimum of three available amines at which conjugation can occur and have a size of less than 500 kD.
Such fragments are readily commercially available and/or can be readily made by those skilled in the ar.

Turning to `CCCCOc1nc(N)c2[nH]c(=O)n(CC3CCNCC3)c2n1` [Compound A], the “visual adverse effect of the injected site” value in data set [1] is listed as “No visual adverse effect of the injected site was observed”.

Broadly, the Solubility is the dissolved amount per volume that the medium holds. Turning to Tetanus Toxoid, in data set [2], the Solubility is recorded as 30 mg/mL and the Stability entry is given as “years”.
